Assay results reported in patent US20220323386A1 (UNIVERSITY OF SOUTHERN CALIFORNIA, published 2022).

Target: neurogenic locus notch homolog protein 1 (NOTCH1) (UniProt P46531 19-2555, limits assumed)
Assay: large-scale immunoaffinity purification and LC-MS analysis

Sequence of neurogenic locus notch homolog protein 1 (NOTCH1) (P46531 19-2555 limits assumed): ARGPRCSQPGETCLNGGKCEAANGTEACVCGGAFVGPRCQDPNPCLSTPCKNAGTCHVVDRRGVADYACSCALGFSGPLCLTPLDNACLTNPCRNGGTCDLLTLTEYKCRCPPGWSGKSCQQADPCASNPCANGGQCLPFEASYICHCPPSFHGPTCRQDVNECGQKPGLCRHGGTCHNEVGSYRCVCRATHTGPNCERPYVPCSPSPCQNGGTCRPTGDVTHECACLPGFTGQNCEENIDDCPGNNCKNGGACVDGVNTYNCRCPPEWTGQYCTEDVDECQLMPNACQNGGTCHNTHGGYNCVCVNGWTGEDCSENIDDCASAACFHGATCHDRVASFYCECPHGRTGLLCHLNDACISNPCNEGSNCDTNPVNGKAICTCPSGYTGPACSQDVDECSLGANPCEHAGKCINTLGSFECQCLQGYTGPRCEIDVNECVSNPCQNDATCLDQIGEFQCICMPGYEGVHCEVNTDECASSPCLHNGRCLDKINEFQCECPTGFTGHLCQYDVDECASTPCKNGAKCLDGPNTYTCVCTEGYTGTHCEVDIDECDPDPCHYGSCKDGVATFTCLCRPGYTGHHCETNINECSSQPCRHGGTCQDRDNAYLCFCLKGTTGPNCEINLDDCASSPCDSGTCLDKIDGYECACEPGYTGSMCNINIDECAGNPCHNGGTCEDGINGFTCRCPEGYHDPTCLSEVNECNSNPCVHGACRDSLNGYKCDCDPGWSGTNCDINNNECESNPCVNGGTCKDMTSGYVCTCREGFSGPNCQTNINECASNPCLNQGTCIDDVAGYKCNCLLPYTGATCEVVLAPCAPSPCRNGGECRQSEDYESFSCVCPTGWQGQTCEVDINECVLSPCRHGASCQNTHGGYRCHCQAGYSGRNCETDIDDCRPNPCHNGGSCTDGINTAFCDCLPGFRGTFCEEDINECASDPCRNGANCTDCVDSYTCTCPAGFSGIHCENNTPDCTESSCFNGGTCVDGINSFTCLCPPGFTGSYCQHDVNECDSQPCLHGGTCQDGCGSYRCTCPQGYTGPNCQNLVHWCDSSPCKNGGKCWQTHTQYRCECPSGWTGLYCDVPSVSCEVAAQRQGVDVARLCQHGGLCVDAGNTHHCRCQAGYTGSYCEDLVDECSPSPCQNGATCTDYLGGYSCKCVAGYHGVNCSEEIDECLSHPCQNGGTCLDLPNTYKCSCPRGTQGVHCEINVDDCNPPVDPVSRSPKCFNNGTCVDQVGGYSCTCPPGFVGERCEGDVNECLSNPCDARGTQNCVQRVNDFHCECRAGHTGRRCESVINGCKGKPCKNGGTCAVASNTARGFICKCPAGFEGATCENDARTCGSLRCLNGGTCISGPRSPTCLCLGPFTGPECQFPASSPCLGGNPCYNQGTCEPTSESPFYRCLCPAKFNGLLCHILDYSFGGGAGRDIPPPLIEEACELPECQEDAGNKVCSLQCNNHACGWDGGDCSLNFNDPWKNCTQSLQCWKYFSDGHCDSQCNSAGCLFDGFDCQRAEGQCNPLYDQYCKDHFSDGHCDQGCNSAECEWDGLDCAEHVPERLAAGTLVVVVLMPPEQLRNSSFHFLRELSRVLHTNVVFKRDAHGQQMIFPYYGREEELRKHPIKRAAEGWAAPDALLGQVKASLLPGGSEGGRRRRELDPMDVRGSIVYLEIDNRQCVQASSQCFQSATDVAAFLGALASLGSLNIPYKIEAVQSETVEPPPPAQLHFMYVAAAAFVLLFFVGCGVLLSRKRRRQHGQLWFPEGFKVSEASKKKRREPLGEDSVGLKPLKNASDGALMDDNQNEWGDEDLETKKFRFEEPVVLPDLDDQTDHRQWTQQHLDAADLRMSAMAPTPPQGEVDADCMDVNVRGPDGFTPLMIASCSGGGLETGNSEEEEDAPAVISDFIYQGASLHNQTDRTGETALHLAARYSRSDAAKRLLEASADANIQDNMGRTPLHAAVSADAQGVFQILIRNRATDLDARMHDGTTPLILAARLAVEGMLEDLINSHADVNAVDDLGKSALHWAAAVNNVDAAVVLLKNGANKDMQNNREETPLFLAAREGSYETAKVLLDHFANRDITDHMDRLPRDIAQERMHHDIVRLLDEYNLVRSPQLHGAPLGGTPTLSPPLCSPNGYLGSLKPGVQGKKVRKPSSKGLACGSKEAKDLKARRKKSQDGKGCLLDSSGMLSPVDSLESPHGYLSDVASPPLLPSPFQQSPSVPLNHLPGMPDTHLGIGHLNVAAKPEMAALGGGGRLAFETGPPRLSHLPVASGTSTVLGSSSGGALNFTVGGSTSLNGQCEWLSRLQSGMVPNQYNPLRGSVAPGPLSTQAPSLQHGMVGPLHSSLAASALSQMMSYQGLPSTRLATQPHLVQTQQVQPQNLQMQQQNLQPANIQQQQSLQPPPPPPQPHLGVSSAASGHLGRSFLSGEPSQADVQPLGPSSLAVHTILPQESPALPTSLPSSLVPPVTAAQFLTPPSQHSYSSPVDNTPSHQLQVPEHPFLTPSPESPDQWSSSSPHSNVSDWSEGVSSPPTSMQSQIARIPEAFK

binding result: binds
B1: Tre2-Bub2-Cdc16 domain family member 15 (TBC1D15) (other, UniProt Q8TC07 1-691, looked up)
chain: MAAAGVVSGKIIYEQEGVYIHSSCGKTNDQDGLISGILRVLEKDAEVIVDWRPLDDALDSSSILYARKDSSSVVEWTQAPKERGHRGSEHLNSYEAEWDMVNTVSFKRKPHTNGDAPSHRNGKSKWSFLFSLTDLKSIKQNKEGMGWSYLVFCLKDDVVLPALHFHQGDSKLLIESLEKYVVLCESPQDKRTLLVNCQNKSLSQSFENLLDEPAYGLIQAGLLDRRKLLWAIHHWKKIKKDPYTATMIGFSKVTNYIFDSLRGSDPSTHQRPPSEMADFLSDAIPGLKINQQEEPGFEVITRIDLGERPVVQRREPVSLEEWTKNIDSEGRILNVDNMKQMIFRGGLSHALRKQAWKFLLGYFPWDSTKEERTQLQKQKTDEYFRMKLQWKSISQEQEKRNSRLRDYRSLIEKDVNRTDRTNKFYEGQDNPGLILLHDILMTYCMYDFDLGYVQGMSDLLSPLLYVMENEVDAFWCFASYMDQMHQNFEEQMQGMKTQLIQLSTLLRLLDSGFCSYLESQDSGYLYFCFRWLLIRFKREFSFLDILRLWEVMWTELPCTNFHLLLCCAILESEKQQIMEKHYGFNEILKHINELSMKIDVEDILCKAEAISLQMVKCKELPQAVCEILGLQGSEVTTPDSDVGEDENVVMTPCPTSAFQSNALPTLSASGARNDSPTQIPVSSDVCRLTPA
notes: TBC1D15 as present in cell lysates (co-IP); also called TBC1 domain family member 15
